Laboratory results: publication PMC3248442 (2011)

Biological target: T1, integrin αVβ5 (Homo sapiens, UniProt P06756)
T1 chain 1: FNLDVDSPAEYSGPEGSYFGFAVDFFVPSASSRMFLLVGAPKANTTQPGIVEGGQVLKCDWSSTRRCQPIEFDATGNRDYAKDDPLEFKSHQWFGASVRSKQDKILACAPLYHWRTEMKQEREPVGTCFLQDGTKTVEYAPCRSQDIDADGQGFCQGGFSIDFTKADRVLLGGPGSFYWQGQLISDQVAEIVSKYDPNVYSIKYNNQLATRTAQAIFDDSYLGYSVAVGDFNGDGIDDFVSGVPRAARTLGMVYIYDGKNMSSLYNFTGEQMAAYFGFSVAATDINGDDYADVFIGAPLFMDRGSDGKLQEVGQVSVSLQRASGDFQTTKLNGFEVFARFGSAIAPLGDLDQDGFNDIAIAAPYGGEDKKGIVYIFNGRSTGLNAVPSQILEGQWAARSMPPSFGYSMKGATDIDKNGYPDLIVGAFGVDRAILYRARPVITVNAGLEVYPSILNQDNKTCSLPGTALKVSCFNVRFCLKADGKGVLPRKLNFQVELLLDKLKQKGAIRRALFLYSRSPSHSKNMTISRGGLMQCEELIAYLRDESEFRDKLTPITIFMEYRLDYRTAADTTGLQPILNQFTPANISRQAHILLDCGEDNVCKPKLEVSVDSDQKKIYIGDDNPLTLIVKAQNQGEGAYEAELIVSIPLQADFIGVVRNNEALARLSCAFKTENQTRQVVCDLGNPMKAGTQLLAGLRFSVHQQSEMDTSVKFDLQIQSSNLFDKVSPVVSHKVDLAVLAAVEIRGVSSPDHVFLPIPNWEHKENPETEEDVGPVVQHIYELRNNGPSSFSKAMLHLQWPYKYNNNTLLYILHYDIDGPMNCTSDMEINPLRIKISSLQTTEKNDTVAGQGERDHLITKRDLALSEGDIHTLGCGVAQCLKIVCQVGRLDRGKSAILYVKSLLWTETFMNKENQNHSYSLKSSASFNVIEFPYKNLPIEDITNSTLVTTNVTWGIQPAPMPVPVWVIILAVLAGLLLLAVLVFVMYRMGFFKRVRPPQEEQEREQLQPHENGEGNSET
T1 chain 2: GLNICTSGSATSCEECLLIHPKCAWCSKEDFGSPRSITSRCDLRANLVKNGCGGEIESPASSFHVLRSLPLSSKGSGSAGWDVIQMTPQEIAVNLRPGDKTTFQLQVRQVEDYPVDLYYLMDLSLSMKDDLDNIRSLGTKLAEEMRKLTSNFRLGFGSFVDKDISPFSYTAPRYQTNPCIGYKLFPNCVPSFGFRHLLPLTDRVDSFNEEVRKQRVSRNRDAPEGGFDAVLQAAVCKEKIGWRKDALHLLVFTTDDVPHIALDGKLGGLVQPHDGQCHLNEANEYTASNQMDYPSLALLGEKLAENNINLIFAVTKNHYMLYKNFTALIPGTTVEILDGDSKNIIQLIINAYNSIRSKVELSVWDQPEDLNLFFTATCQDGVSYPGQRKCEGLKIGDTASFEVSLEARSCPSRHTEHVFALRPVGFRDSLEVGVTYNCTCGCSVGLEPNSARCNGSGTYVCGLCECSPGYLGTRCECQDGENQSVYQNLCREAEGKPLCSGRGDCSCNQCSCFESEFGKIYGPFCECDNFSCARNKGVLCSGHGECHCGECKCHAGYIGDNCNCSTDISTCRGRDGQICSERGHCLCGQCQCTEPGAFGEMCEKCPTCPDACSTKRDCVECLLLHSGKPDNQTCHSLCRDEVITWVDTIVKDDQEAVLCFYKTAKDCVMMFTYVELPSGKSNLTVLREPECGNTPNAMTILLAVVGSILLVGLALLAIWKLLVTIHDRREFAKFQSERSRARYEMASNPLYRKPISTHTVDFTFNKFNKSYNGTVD
Assay: solid-phase binding assay (fluorescent immunoassay)

B1: PilY1 532-1163 (protein)
chain: AGDLTRYSLTTQDKATVQTKLWSAQSILDAMPNGGAGRKIMMAGSGTSGLKEFTWGSLSADQQRQLNRDPDRNDVADTKGQDRVAFLRGDRSKENSDNFRTRNSILGDIINSSPATVGKAQYLTYLAQPIEPSGNYSTFAEAQKTRAPRVYVGANDGMLHGFDTDGNETFAFIPSAVFEKLHKLTARGYQGGAHQFYVDGSPVVADAFFGGAWHTVLIGSLRAGGKGLFALDVTDPANIKLLWEIGVDQEPDLGYSFPKPTVARLHNGKWAVVTGNGYSSLNDKAALLIIDLETGAITRKLEVTGRTGVPNGLSSPRLADNNSDGVADYAYAGDLQGNLWRFDLIAGKVNQDDPFSRANDGPAVASSFRVSFGGQPLYSAVDSAGAAQAITAAPSLVRHPTRKGYIVIFGTGKYFENADARADTSRAQTLYGIWDQQTKGEAAGSTPRLTRGNLQQQTLDLQADSTFASTARTIRIASQNPVNWLNNDGSTKQSGWYLDFMVNGTLKGEMLIEDMIAIGQVVLLQTITPNDDPCADGASNWTYGLDPYTGGRTSFTVFDLARQGVVDSKSDYSYNKQNVAVSGTEQKGLGGLTLSTNEQGNPEVCSSGECLTVNPGPNTRGRQNWRPIEGKN
- Kd: 164 nM
